Measurements taken from the DeepSol protein solubility set.

Experiment: soluble on expression in E. coli; label from the status in PepcDB or PDB records

Sequence	soluble on expression in E. coli
MSLKNENKMIIYQVFTRLFGNNNNHCIYNGDISQNGCGKMADFTAKALGEIKKLGATHIWYTGIIEHASQTDYRRYNIRPDHPAIVKGKAGSPYAIKDYYDVDPDLATDVPGRMKEFENLVSRTHRAGLKVIIDFVPNHVARQYHSDAQPDGTTQLGANDDPNYSFSPYNNFYYIPQSELHGQFDMTGNALEPYHEFPAKATGNNRFDAYPNINDWYETVKLNYGVDYQNGGTCHFSPTPDTWTKMLDILLFWSSKNIDGFRCDMAEMVPVEFWEWAIPQVKQEYPNIIFIAEVYNPHEYKNYLFRGKFDFLYDKVGLYDTLRNVACGYDSATAITRSWQSLGGIEKRMLNFLENHDEQRIASDFFAGDPRKGVPALIVSACMNTNPMMIYFGQEFGEMGMDSEGFSGRDGRTTIFDYWSVDTIRRWRNEGKFDGKMLTEEQKHLYAIYQRVLTLCNEEQAISNGVFFDLMYANENGWRFNEHKQYTFMRKYKNELLFIVVNFDNQPVNVAINVPSHAFDFLQIPQFDSYKAVDLLTDKVEEISLLPYKATEIALGAYTGKILKIKEGHHHHHH	soluble
HHHHHSSGLVPRGSHMTNPAYFPQLSQLDVSGEMESTYEDIRLTLRVPWVAFGCRVLATFPGYLPLAWRRSAEALITRYAEQAADELRERSLLNIGPLPNLKERLYAAGFDDGEIEKVRRVLYAFNYGNPKYLLLITALSESMQMRPVGGAEVSSELRASIPKGHPKGMDPLLPLVDATKASTEVQGLLKRVADLHYHHGPASDFQALANWPKVLQIVTDEVLAPVARTEQYDAKSRELVTRARELVRGLPGSAGVQRSELMSMLTPNELAGLTGVLFMYQRFIADITISIIHITECLDGAEAASKSPFPI	soluble
MPNEQKRFVTGPAGRLETVVTLPEGAPRGLAIVAHPHPLYQGSMDNKIVYILSRAFIEQQYITVKFNFRGVGASEGSYAEGKGEIEDVMAVTQAMREQYDTGPEPLPLTLAGFSFGGAVQAHVAQQLKPSRLVLVAPSVERLQAPPVVDHARHILVIQGDQDTIVPLQSILNWAAPQTLPVTVIPGAEHFFHGKLHVLKNVILQSCSISQAATSLYP	not soluble
MGSDKIHHHHHHMNDRFVCSLIEKSDLSNFVKKHSKNVFYDIAKAEAAVHQQTIDTIHFHEVGAIDSIVDIVGFFILWEQLEIEQVYSTPITDGSGTITIAHGVMPIPVPAVMELRKETNLIIQQDFEIKTELVTPTGLAIFKELSPLFVAPEQRLIEKIGYGFGKRETGKFNALRGSIFTETHSKKKRTEHHDQVLKIETNIDNQTPEQLGYVMDLLLEHGALDVFFTPIHMKKNRSAILLTVLTTTEEKEYFTELLFKHTSTIGMRFQTMERSVMDRSFKILETPFGKVHIKKNHYHGLLKESIEYQDCERIAKQYNFTIEEVYRLVQTLNNKTID	not soluble
NLLIQELCQAVINHFVRYLNINLGALYVSNEVESSLHLLSGYALSKAKKEMPAIRFGDGIVGQVAQERRLLVLENIPGENFVLESGLGDIQPSHILIAPILYQERMLGVIELGSLEPFTENHKEYMSHVMDSIAIAITSAHAREKVRELLEETQR	not soluble
MGSDKIHHHHHHMADFQGETEMTAEVFDPRALRDAFGAFATGVTVVTASDAAGKPIGFTANSFTSVSLDPPLLLVCLAKSSRNYESMTSAGRFAINVLSETQKDVSNTFARPVEDRFAAVDWRLGRDGCPIFSDVAAWFECSMQDIIEAGDHVIIIGRVTAFENSGLNGLGYARGGYFTPRLAGKAVSAAVEGEIRLGAVLEQQGAVFLAGNETLSLPNCTVEGGDPARTLAAYLEQLTGLNVTIGFLYSVYEDKSDGRQNIVYHALASDGAPRQGRFLRPAELAAAKFSSSATADIINRFVLESSIGNFGIYFGDETGGTVHPIANKDAHS	not soluble
MDNHNKYSVRCQCGAVEVQLNNNPVVHAFCHCSDCRDLLNIPFHAVTAWNKNDAVIVKGEEELSIYKHPSLEMTRCFCKHCGETVFNTNVMDWRVISQLLISKCNNNEIPENLRSDKHFFYEQRVVDIQDELPKFSRGTDGPLYEDQH	not soluble
TIYLYKNSIPSGKNKGENAILIDNKTIVEQLESAAKKEDKKSGESTTEQTQIQSKSVTEQKQPKIIGYTTTGNVHEDNKHIFPIDKLTSDRNFDRKIIVGATEETLDKSNTLQSNEAIVLPAPSKYKSTDTNKVTITQGPNIIGIHVNEKENAETQKFVDW	soluble
MKHLLPFATVILALGIVGCQKVETTAPEKIKQDTQTKQQVSVTPERPSDAELNAVKVYHHMKYMEATAKLAGGTNKLLHTKKLPTEGSDAVVTPALDHLYSKGVIDLSNGPVTIEYPEVDEGRYYSIHVTDQEHYTIFDKIHPVGKFTFVRKGKNMEVPEGATVIESPGDYPHLFIRVQVKTPEDLVNALSIQEKITLTANSSKTLIVDNPIKHTLATHDVYSQNKELMVSSVNFTHQDYLRVSEYLGVVAPNMGPTGNIGLFGPIDSNEPNSDDYLFRAVGIIGHLGLPLEHAYYGPYFTNCENQLLMGDKTEVFTLPYEPEGVELFWSVTRYSALTRNTLPGKNDLINAYNTKPDANGNISITFSADSPNDGTYWMPVNSGEPYYFVVRYYKPDVNNLPEKPCSLEHHHHHH	not soluble
GSLYKMSSINADFAFNLYRRFTVETPDKNIFFSPVSISAALVMLSFGACCSTQTEIVETLGFNLTDTPMVEIQHGFQHLICSLNFPKKELELQIGNALFIGKHLKPLAKFLNDVKTLYETEVFSTDFSNISAAKQEINSHVEMQTKGKVVGLIQDLKPNTIMVLVNYIHFKAQWANPFDPSKTEDSSSFLIDKTTTVQVPMMHQMEQYYHLVDMELNCTVLQMDYSKNALALFVLPKEGQMESVEAAMSSKTLKKWNRLLQKGWVDLFVPKFSISATYDLGATLLKMGIQHAYSENADFSGLTEDNGLKLSNAAHKAVLHIGEKGTEAAAVPEVELSDQPENTFLHPIIQIDRSFMLLILERSTRSILFLGKVVNPTEA	soluble
MGSDKIHHHHHHMAKERALTLEALRVMDAIDRRGSFAAAADELGRVPSALSYTMQKLEEELDVVLFDRSGHRTKFTNVGRMLLERGRVLLEAADKLTTDAEALARGWETHLTIVTEALVPTPAFFPLIDKLAAKANTQLAIITEVLAGAWERLEQGRADIVIAPDMHFRSSSEINSRKLYTLMNVYVAAPDHPIHQEPEPLSEVTRVKYRGIAVADTARERPVLTVQLLDKQPRLTVSTIEDKRQALLAGLGVATMPYPMVEKDIAEGRLRVVSPESTSEIDIIMAWRRDSMGEAKSWCLREIPKLFNGK	not soluble
MDAQTFKTAIVRRRLVDVLMNPELKATLVLKNGLVINVVTREIYPADVAVYDEYILKVGDASDLIGPETEVVDLQGKYYVSPGFIDSHMHFESSMLTISEFSRLSIPSGTTTLVADPHEIGNALGPVGIKAMAEETKVVPNRVYLVVPALTPDCPGLETAGYDITSRDMPEILNYPNVIGIGELQGFSNAKYVYKYTPEIITDLIASTTYAKSIGKIVDGNAPELFGSELAAHLIAAGTEASCHETTTKEECVEKLRYGMYVFMREGSTQKNMAECIRAVTEEGLDSRRLIGATDDMVAEDLAKNGHMNWVVARIIKQGIDPVEAIQMVTINPATYFGLKHVGVLAPGKMADIVVISDLMDMKVEKVYIGGKLVAEKGKMVVNIPKYTYPEEVKHSVKCKPVTAEALEIKATGSNAVVRTIGLIPDQNLTESFEFTVPVSGGVAQPDLTQDVLPIAVVERYGRNGSIGRAFVRGFGLKGGAFAESVSHDAHNIIVVGTSYQDMALAVNRVIEMGGGVAVVKNGRVLGDLRLPVGGLITDELDGYELSRKIAELHRLTAVELGCTVHAPFMHLSFLALTTSPKWKITDQGLIDVNSFAIIPPVK	soluble
MVQDQIRYDILVQDALRGVIRKVLSEVAKAGLPGSHHFFITFLTNAPGVKISTRLKSRYPEQMTIVLQHQFRDLNVSETAFEVTLSFREVSEKLVIPFHSIQVFYDPVAAFEAAFDLPSNLNSKEGENLENIASTPVILSDTQKKEKKFPKEQISKTNKDSSNNDTKQSADVVSLDSFRKKLEHHHHHH	soluble
MNRGLDPMHVGNARYVKNDDLPKTVPVFPLPGALLLPEGHLPLNIFEPRYLAMIDTALASHRLIGMVQPALHVIEAGIEGGPLSAVGCLGRITSFSETGDGRYVISLTGVCRFRLLEEVAGSEPYRSFRHAPFGADLSGEYDEEAVDRENLLRVFRAFLDANQLEADWESVERAGNRVLVNSLSMMSPFGPAEKQALLEAPDLKTRAETLIAITEIVLAQGSGEGGTVLQLEHHHHHH	not soluble
MGSSHHHHHHSSGLVPRGSHASMAAEMDWDKTVGAAEDVRRIFEHIPAILVGLEGPDHRFVAVNAAYRGFSPLLDTVGQPAREVYPELEGQQIYEMLDRVYQTGEPQSGSEWRLQTDYDGSGVEERYFDFVVTPRRRADGSIEGVQLIVDDVTSRVRARQAAEARVEELSERYRNVRDSATVMQQ	soluble
MLQNPPRITSTASIVGPKEGKGPLRLFFDNIIEDEMWGEKSWEKAESKLIRETFSKVLQKGNKTSQEIDYVISGDLLNQCIAANFGLRESDVPFFGVYGACSTIAESMSIGAMLVDGGFADNVVCITSSHFCSAEKQFRFPLELGTQRPPSAQWTVTGSGGVLISNDGSGPYITHITTGKIVDMGIKDANNMGAAMAPAAVDTIVTHFKDTGFTPESYDLILTGDLGAIGREICVELTREQGFNIENIYNDCGLMIYDREKQDTHAGGSGCGCAATVFAGFVYKKLMDGTLKNVLFVATGALLSPVSTQQGESIPSIAHAISITTSPERLEHHHHHH	not soluble
TAGFYINSEISDYFWIKTEFNYVNRGYTHKEAGKTLKTNYYCIDVYPVTPAFHYKGAQIFAGPSVTLLVASNRDTLIGGEVKKIADNKLDGINRYDIGIMAGVEYEFNFGLNIGVRMVRGFTSLYEPVNSIQTQWFNQTYLFTLGYSI	not soluble
MRKFMMSVVMLAALTSCATQNMHGNYAAVSIEANKTMADVTVAQLVALYPPAHTRLDFQQTITDPYGAALLSALRKKGYSVLEYNPQPQAVPAKSAATAALVTANPTSGLPLSYVVDSPESMNLYRITVQIGVQSISRAFVVATNGNLYPAGAWVRKELEHHHHHH	not soluble
MTDESDSTAHVSCIIPVYNDSVGIKNTLRSVVGQEYHGYDVYVVDNGSTDGSRRRVRNCAAESDDIQLLVEDEVQGSYAARKTGVQNAESDVLAFLDADETVDEDWLETALGAMQEQDVDYLGCNVELTCPEDTLVGRYNARTGFPVEEYLEDQNYAPTCALLVRRKVFEDVGPFDARLISGGDREFGDRVHDAGYEQGYAENATVYHPARTSLESLAKKNFRVGRGFCQKQRYYPERYGKPGIPPTPSGPSGGDDGDEPDASLTRLAFTLLSIAMLACRGVGYYYEFVVGEENDDIPAPTSLEHHHHHH	not soluble
MKPKTLSPILTAKGVRLAIAVGRFNERVTKLLLEGALEAYARLGGDPAEVLVAWVPGSFELPLVAKRLAQRPDVDAVVALGAVIRGETPHFEYVAGQAASGLMQAMLQTEKPIVFGVLTTNTPEEAQERAGGKAGNKGAEAVFTAIEMVRLLEAISR	soluble
MGSDKIHHHHHHMWEIDQVRQGIVKNQIPSVNLWYGEERFFIQEALQLLKNSYLAQDPSGSGIEILSGKSTGPEQIVEIANTVSFFGGKLIIVEDIPYFQDGQGDALEPFFAYFENPNPGTCLVFLAQSVNRGRKFFKAIEKKGSILEFVSPKRQQEWSAWLDRELAARGKTMKPQVKALFLEWGGHQVGALSQELDKLALFVEGKEIRTEDVRSLVPQAVEATVFELLDAVAARSSKEAVQKLQQVLRQEHSLKVLTLLSRQVRLLLGARAMRQQGRGAEEAPRLLGIKPYEAQKIWQKAAQLTWEQLSWALRECLETDVAIKTGKGEPEFLLELMVVKFCEM	not soluble
